In publication PMC3699631, “Posttranslational Modifications of the Histone 3 Tail and Their Impact on the Activity of Histone Lysine Demethylases In Vitro” (PLoS ONE, 2013):

Tests used:
[1] = target: T1, human cc-KDM4C (Homo sapiens, UniProt Q9H3R0); assay: FDH-assay enzyme kinetics of H3 peptide demethylation, truncated KDM4C; type: biochemical; settings: for K m / demethylation / catalytic activity (in words) / k cat / k cat /K m: FDH-assay; for K m: 50 mM HEPES (pH 7.5), 50 mM NaCl, 50 µM FeSO4, 500 µM α-KG, 500 µM ascorbate, 2 mM NAD, substrate 10–1000 µM, e.g. 4.88 µM KDM4C, NADH fluorescence 15–30 minutes; for K m / k cat: triplicate; for demethylation / catalytic activity (in words): compared to H3(1–24)K9me3 where a change is stated; for k cat: pH 7.5, NADH fluorescence; for k cat /K m: pH 7.5, triplicate, SD by propagation of errors, unit: (min^−1 * µM^−1) * 10^3; for fold decrease in catalytic activity (k cat/K m): compared to H3(1–24)K9me3
T1 construct: Truncated constructs of KDM4A and KDM4C containing only the catalytic cores (cc-KDM4A/cc-KDM4C); made in house
T1 sequence (Q9H3R0 1-349 limits assumed): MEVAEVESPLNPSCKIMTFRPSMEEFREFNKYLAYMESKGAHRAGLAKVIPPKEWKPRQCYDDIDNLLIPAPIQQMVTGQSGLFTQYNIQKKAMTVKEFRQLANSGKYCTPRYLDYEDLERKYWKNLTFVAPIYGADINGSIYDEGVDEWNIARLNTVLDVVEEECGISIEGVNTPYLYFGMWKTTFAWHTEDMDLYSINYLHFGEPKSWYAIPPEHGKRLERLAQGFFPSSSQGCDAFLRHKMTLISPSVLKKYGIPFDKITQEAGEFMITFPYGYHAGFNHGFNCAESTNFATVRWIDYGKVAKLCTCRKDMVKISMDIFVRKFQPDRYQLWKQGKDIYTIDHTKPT
Description: (§1) The enzyme kinetics were measured using a Formaldehyde DeHydrogenase Assay (FDH-Assay) and the demethylation of substrates was confirmed when possible by MALDI-TOF-MS, see File S1 for details. The test solution contained 50 mM HEPES (pH 7.5), 50 mM NaCl, 50 µM FeSO4, 500 µM α-KG, 500 µM ascorbate, 2 mM NAD, approximately 0.05 unit of FDH and e.g. 4.88 µM KDM4C (enzyme concentration varied between batches). The reference solution was comprised of the same except substrate. The assay was initiated by adding various concentrations of H3 peptide substrates e.g. H3(1–24)K9me3 (10–1000 µM) and the increase in NADH fluorescence was measured over 15–30 minutes in 30 second intervals. Data analysis and kinetic values were obtained using programs Excel and GraphPad Prism® 5.0. For details, see File S1.
(§2) The standard deviations for k cat/K m were calculated using the statistic law of propagation of errors. Standard errors for Michaelis-Menten Kinetics were automatically given in GraphPad Prism®, with a 95% confidence interval. All enzyme kinetic curves were done in triplicate unless otherwise stated.
(§3) Test for activity of enzyme using the fluorescence FDH assay, determination of Vmax and Km of enzymes with substrate, expression and purification of cc-KDM4A and cc-KDM4C software and parameters for the FDH coupled assay, see Lohse et al.^21
as §2, with “kcat/ Km” for “k cat/K m”, “95 %” for “95%”

[2] = target: T2, human cc-KDM4A (Homo sapiens, UniProt O75164); assay: FDH-assay enzyme kinetics of H3 peptide demethylation, truncated KDM4A; type: biochemical; settings: for K m / k cat / k cat /K m / demethylation / catalytic activity (in words): FDH-assay; for K m: 50 mM HEPES (pH 7.5), 50 mM NaCl, 50 µM FeSO4, 500 µM α-KG, 500 µM ascorbate, 2 mM NAD, substrate 10–1000 µM, NADH fluorescence 15–30 minutes; for K m / k cat / k cat /K m: triplicate; for k cat / k cat /K m: pH 7.5; for k cat: NADH fluorescence; for k cat /K m: SD by propagation of errors, unit: min^−1 * µM^−1 * 10^3; for demethylation / catalytic activity (in words): compared to H3(1–24)K9me3 where a change is stated
T2 construct: Truncated constructs of KDM4A and KDM4C containing only the catalytic cores (cc-KDM4A/cc-KDM4C); made in house
T2 sequence (O75164 1-350 limits assumed): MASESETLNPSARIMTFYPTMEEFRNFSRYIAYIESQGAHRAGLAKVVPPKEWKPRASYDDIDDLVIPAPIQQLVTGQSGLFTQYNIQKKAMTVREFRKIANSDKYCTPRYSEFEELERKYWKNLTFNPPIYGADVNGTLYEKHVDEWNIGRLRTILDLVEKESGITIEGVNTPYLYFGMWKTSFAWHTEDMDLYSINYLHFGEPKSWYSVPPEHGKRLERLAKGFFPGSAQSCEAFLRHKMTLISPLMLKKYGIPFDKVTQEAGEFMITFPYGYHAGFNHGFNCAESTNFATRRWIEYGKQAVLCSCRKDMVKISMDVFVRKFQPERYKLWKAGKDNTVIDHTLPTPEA
Description: as §1, §2, §3
as §2, with “kcat/ Km” for “k cat/K m”, “95 %” for “95%”

[3] = system: PHF8; settings: PHF8 with PHD domain; ref [5]; cited from earlier work
From the text: The enzyme kinetics of FL-KDM4A and ...

Substance | K m [1] | demethylation / catalytic activity (in words) [1] | k cat [1] | k cat /K m [1] | fold decrease in catalytic activity (k cat/K m) [1] [fold] | K m ([2]; cc-KDM4A) | k cat ([2]; cc-KDM4A) | k cat /K m ([2]; cc-KDM4A) | demethylation / catalytic activity (in words) ([2]; cc-KDM4A) | fold difference in catalytic activity between cc-KDM4A and cc-KDM4C ([2]; cc-KDM4A versus cc-KDM4C) [fold] | fold increase in k cat/K m ([2]; cc-KDM4A, compared to H3(1–24)K9me3) [fold] | change of K m [3] | change of k cat [3]
H3(1–24)T3(ph)K9me3: phosphorylation of threonine 3 in combination with lysine 9 trimethylation | 207±50 | did not prevent demethylation | 0.38±0.04 | 1.8±0.1 | 5 | 162±15 | 1.2±0.04 | 7.4±0.7 | did not prevent demethylation | – | – | – | –
H3(1–24)K9me3K14(ac): histone peptide containing H3K9me3 in combination with acetylation of K14 | 35.2±20 | a decrease | 0.1±0.01 | 2.8±0.2 | 3 | 33±4 | 1.0±0.03 | 30.3±3.8 | an increase in the enzymatic catalytic efficiency | 10 | 3 | – | –
H3(1–24)K4me3-K9me2: H3(1–24) substrate with trimethylated K4 and dimethylated K9 | – | – | – | – | – | – | – | – | – | – | – | a decrease in K m | an increase in k cat
